Tested on: T1, KdpE-MBP (Sinorhizobium fredii CCBAU45436 (SF4)), ORF:2638478e
T1 sequence: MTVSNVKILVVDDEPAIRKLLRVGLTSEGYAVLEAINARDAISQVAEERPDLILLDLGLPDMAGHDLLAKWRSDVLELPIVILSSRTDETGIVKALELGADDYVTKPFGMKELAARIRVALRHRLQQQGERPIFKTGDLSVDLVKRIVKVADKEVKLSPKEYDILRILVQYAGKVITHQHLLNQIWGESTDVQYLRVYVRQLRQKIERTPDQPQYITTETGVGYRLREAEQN
Assay: EMSA
Details: 25 mM Tris-HCl pH 8.0, 0.5 mg/mL BSA, 0.1 mg/mL sonicated salmon sperm DNA, 5% glycerol, 0.05% DDM; 10 uL, 20 C, 30 min; 6% native PAGE

TCCTCCTGCGCCTCTCTCGAACCTTTATGCGGTTCGGAGCCATATTCCTGACAAGATCCATCCACCGCCGCGCCGAACTCGATCGTCGCGCCGGGATGCGCACATCGATCGCGATCACCTGCCGGGCGGCCCGGCGCTGCCTCCAGGTGACGCGCAGTCAGTAGAAACAACGCACAGGGATTACCGACATGGACATTGTCGTTCTCGCAATAGGCATCGTGTTCTTCGCCTTATCGTTTGCCTATGTCCGGGCGTGCAGCAACCTCTAATCGCGGAGCGGAAAGATG (double strand) [Probe1_kdpF]
binding: no binding

— article PMC9239096
